{"source": "patent US12391751B2", "about": "“Antibody against advanced glycation end products and use thereof” (Bloom Technology Corporation, priority 2018, dated 2025)", "molecules": {"B1": {"name": "PB-1: mouse monoclonal antibody raised against A-peak-BSA; heavy-chain variable region SEQ ID NO 18, light-chain variable region SEQ ID NO 22 (antibody, listed as Mus musculus, V domains shown)", "VH": "EVRLQQSGPELVKPGTSVKISCKASGYSFTGYYMHWVKQSPVKSLEWIGRIIPYNGATSYNQNFKDKASLTVDKSSRTAYMDLHSLTSEDSAVYYCARSRYYGRAPYYFDYWGQGTTLTVSS", "VL": "DVVVTQTPLSLPVSLGDQASISCRSSQSIVHSNGNTYLEWYLQKPGQSPKLLIYKVSNRFSGVPDRISGSGSGTDFTLKISRVEAGDLGVYSCFQGSHVPFTFGSGTKLEIK"}, "B2": {"name": "SJ-5: mouse monoclonal antibody raised against GAL13-MSA; heavy-chain variable region SEQ ID NO 4, light-chain variable region SEQ ID NO 8 (antibody, listed as Mus musculus, V domains shown)", "VH": "EVMLVESGGRLVKPGGSLKLSCAASGFTFSSYGMSWVRQTPEKRLEWVATISGGGSYTYYPDSVKGRFTISRDNVKNNLYLQMSSLRSEDTALYYCARRGAYGDYGWFAYWGQGTLVTVSA", "VL": "DIVLTQSPATLSVTPGDSVSLSCRASQSINNNLHWYQQKSHESPRLLIKCASQSISGIPSRFSGSGSGTDFTLSINSVETEDFGMYFCQQSNSWPLTFGAGTKLELK"}}, "key": {"HUVEC": {"test_system": "HUVEC", "test": "Neutralization test of vascular endothelial cell lumen formation inhibition using PB-1 (Example 35)", "type": "cell-based, human", "details": "PB-1 pre-reacted with Glycer-AGEs-BSA; HUVEC, 8 hours", "procedure": "Matrigel matrix was prepared by the same operation as in Example 14.\n10 μL of Glycer-AGEs-BSA (10 mg/mL) prepared in Example 1, 10 μL of phosphate-buffered saline (PBS, FUJIFILM Wako Pure Chemical Corp.), and 90 μL of the PB-1 antibody (10 mg/mL) or a control antibody (10 mg/mL) were added to a 1.5 mL tube (Watson) and left standing at room temperature for 10 minutes. Then, a supernatant was recovered by centrifugation at 14000 rpm for 15 minutes using a centrifuge (Thermo Fisher Scientific Inc.).\n(3) A lumen formation inhibition test was conducted by the same operation as in Example 14. As shown in the drawing, HUVEC was confirmed to form a lumen in the Matrigel matrix in the control BSA addition group. […] Furthermore, this inhibition of lumen formation was neutralized by the reaction solution of PB-1."}, "CEL-BSA": {"molecular_target": "CEL-BSA (Bos taurus, UniProt P02769)", "sequence (P02769 25-607)": "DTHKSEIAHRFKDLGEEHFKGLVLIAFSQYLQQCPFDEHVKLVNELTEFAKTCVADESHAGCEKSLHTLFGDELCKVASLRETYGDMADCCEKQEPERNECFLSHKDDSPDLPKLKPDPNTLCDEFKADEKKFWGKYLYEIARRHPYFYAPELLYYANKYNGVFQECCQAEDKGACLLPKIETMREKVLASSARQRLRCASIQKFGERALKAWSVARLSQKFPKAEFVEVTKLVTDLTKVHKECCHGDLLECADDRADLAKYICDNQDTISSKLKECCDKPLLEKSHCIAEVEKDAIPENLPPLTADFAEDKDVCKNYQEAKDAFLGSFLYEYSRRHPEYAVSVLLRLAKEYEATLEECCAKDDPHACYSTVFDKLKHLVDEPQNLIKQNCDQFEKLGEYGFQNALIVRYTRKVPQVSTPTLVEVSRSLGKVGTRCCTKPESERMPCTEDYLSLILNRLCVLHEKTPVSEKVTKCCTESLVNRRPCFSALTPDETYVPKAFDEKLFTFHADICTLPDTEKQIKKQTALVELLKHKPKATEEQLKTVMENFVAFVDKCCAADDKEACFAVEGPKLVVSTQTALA", "test": "Specificity of SJ-5 by competitive ELISA (Example 7)", "type": "binding", "details": "GAL13-BSA or Glycer-AGEs-BSA immobilized, POD-labeled SJ-5 0.4 μg/mL", "procedure": "(§1) GAL13-BSA or Glycer-AGEs-BSA prepared into 1 μg/mL with PBS (pH 7.4) was added as an immobilized antigen at 100 μL/well to a 96-well microtiter plate (NUNC) and left at 25° C. for 1 hour. The antigen was immobilized overnight at 4° C. The plate was washed three times with PBS containing 0.05% (v/v) Tween 20 (PBS-T) and then blocked with a carbonate buffer solution (pH 9.5) containing 0.5% (w/v) gelatin for 1 hour. A POD-labeled SJ-5 antibody (0.4 μg/mL) was prepared under the same conditions as in Example 6. In order to confirm specificity, BSA containing AGEs derived from glucose (Glu-AGEs-BSA), BSA containing AGEs derived from glycolaldehyde (Glycol-AGEs-BSA), BSA containing AGEs derived from methylglyoxal (MGO-AGEs-BSA), BSA containing AGEs derived from glyoxal (GO-AGEs-BSA), BSA containing N^ε-carboxymethyllysine (CML-BSA), BSA containing N^ε-carboxyethyllysine (CEL-BSA), and bovine serum albumin (BSA) were added at 50 μL/well to the antigen-immobilized plate in the same way as above, and the POD-labeled SJ-5 antibody (50 μL) was further added thereto, and stirred with a plate mixer, and then left standing at room temperature for 1 hour. After washing, an o-phenylenediamine solution (100 μL) prepared into 0.5 mg/mL with a 0.1 M citrate-phosphate buffer solution (pH 5.0) containing 0.02% (w/v) hydrogen peroxide was added to each well and left standing at 25° C. for 10 minutes. Then, color reaction was terminated by the addition of a 1 M sulfuric acid solution (50 μL) to each well. Then, absorbance at 490 nm was measured with a microplate reader."}, "CML-BSA": {"molecular_target": "CML-BSA (Bos taurus, UniProt P02769)", "sequence (P02769 25-607)": "as above", "test": "Specificity of SJ-5 by competitive ELISA (Example 7)", "type": "binding", "details": "GAL13-BSA or Glycer-AGEs-BSA immobilized, POD-labeled SJ-5 0.4 μg/mL", "procedure": "as §1"}, "GO-AGEs-BSA": {"molecular_target": "GO-AGEs-BSA (Bos taurus, UniProt P02769)", "sequence (P02769 25-607)": "as above", "test": "Specificity of SJ-5 by competitive ELISA (Example 7)", "type": "binding", "details": "GAL13-BSA or Glycer-AGEs-BSA immobilized, POD-labeled SJ-5 0.4 μg/mL", "procedure": "as §1"}, "Glu-AGEs-BSA": {"molecular_target": "Glu-AGEs-BSA (Bos taurus, UniProt P02769)", "sequence (P02769 25-607)": "as above", "test": "Specificity of SJ-5 by competitive ELISA (Example 7)", "type": "binding", "details": "GAL13-BSA or Glycer-AGEs-BSA immobilized, POD-labeled SJ-5 0.4 μg/mL", "procedure": "as §1"}, "Glycer-AGEs-BSA": {"molecular_target": "Glycer-AGEs-BSA (Bos taurus, UniProt P02769)", "sequence (P02769 25-607)": "as above", "test": "Specificity of SJ-5 by competitive ELISA (Example 7)", "type": "binding", "details": "GAL13-BSA or Glycer-AGEs-BSA immobilized, POD-labeled SJ-5 0.4 μg/mL", "procedure": "as §1"}, "Glycol-AGEs-BSA": {"molecular_target": "Glycol-AGEs-BSA (Bos taurus, UniProt P02769)", "sequence (P02769 25-607)": "as above", "test": "Specificity of SJ-5 by competitive ELISA (Example 7)", "type": "binding", "details": "GAL13-BSA or Glycer-AGEs-BSA immobilized, POD-labeled SJ-5 0.4 μg/mL", "procedure": "as §1"}, "MGO-AGEs-BSA": {"molecular_target": "MGO-AGEs-BSA (Bos taurus, UniProt P02769)", "sequence (P02769 25-607)": "as above", "test": "Specificity of SJ-5 by competitive ELISA (Example 7)", "type": "binding", "details": "GAL13-BSA or Glycer-AGEs-BSA immobilized, POD-labeled SJ-5 0.4 μg/mL", "procedure": "as §1"}, "Fru-AGEs-BSA": {"molecular_target": "Fru-AGEs-BSA (Bos taurus, UniProt P02769)", "sequence (P02769 25-607)": "as above", "test": "Specificity of SJ-5 by competitive ELISA (Example 7)", "type": "binding", "details": "GAL13-BSA or Glycer-AGEs-BSA immobilized, POD-labeled SJ-5 0.4 μg/mL"}, "[1]": {"test_system": "HUVEC (human umbilical vein endothelial cells)", "test": "Neutralization test of vascular endothelial cell lumen formation inhibition (Example 14)", "type": "cell-based", "details": "antibody pre-reacted with Glycer-AGEs-BSA; HUVEC, 8 hours", "procedure": "Matrigel matrix (Corning Inc.) was placed in a refrigerator and thawed overnight. The thawed Matrigel matrix was added at 300 μL/well to a 12-well plate (Corning Inc.) and hardened by still standing at 37° C. for 1 hour in a CO2 incubator (ESPEC Corp.).\n10 μL of Glycer-AGEs-BSA (10 mg/mL) prepared in Example 1 or 10 μL of control BSA (10 mg/mL), phosphate-buffered saline (PBS, FUJIFILM Wako Pure Chemical Corp.), and 90 μL of SJ-5 (10 mg/mL) or a control antibody (10 mg/mL) were added to a 1.5 mL tube (Watson) and left standing at room temperature for 10 minutes. Then, a supernatant was recovered by centrifugation at 14000 rpm for 15 minutes using a centrifuge (Thermo Fisher Scientific Inc.).\nHUVEC (human umbilical vein endothelial cells, National Institutes of Biomedical Innovation, Health and Nutrition, JCRB cell bank) was cultured in a 10 cm dish (Corning Inc.) using 10 mL of a medium for HUVEC (KAC Co., Ltd.).\nThe cultured HUVEC was washed with 10 mL of PBS. Then, 1 mL of trypsin-EDTA (FUJIFILM Wako Pure Chemical Corp.) was added thereto and left standing at room temperature for 3 minutes. […]\nAfter the centrifugation, the supernatant was discarded, and precipitated cells were resuspended by the addition of 1 mL of a medium for HUVEC. […] Then, the number of live cells was counted in Auto Cell Counter EVE (NanoEnTek Inc.). […]"}}, "data": [{"molecule": "B1", "values": [{"measurement": "neutralization of lumen formation inhibition by Glycer-AGEs-BSA", "setting": "HUVEC", "result": "neutralized"}]}, {"molecule": "B2", "values": [{"measurement": "specificity: reactivity with CEL-BSA", "setting": "CEL-BSA", "result": "negative"}, {"measurement": "specificity: reactivity with CML-BSA", "setting": "CML-BSA", "result": "negative"}, {"measurement": "specificity: reactivity with GO-AGEs-BSA", "setting": "GO-AGEs-BSA", "result": "negative"}, {"measurement": "specificity: reactivity with Glu-AGEs-BSA", "setting": "Glu-AGEs-BSA", "result": "negative"}, {"measurement": "specificity: reactivity with Glycer-AGEs-BSA", "setting": "Glycer-AGEs-BSA", "result": "positive"}, {"measurement": "specificity: reactivity with Glycol-AGEs-BSA", "setting": "Glycol-AGEs-BSA", "result": "positive"}, {"measurement": "specificity: reactivity with MGO-AGEs-BSA", "setting": "MGO-AGEs-BSA", "result": "negative"}, {"measurement": "specificity: reactivity with Fru-AGEs-BSA", "setting": "Fru-AGEs-BSA", "result": "negative"}, {"measurement": "neutralization of lumen formation inhibition by Glycer-AGEs-BSA", "setting": "[1]", "result": "neutralized"}]}]}
